The target of the test is T1, OX1R-Rluc (human, UniProt O43613 1-425).
T1 construct: Orexin type 1 receptor (OX1R), human cDNA (pcDNA3.1-OX1R, cDNA Resource Centre); construct made 'as described'; BRET donor; also called orexin type 1 receptor; Orexin 1 receptor; source: HEK293, transiently transfected, in living cells; not shown: Rluc, C-terminal, kept
T1 sequence (looked up): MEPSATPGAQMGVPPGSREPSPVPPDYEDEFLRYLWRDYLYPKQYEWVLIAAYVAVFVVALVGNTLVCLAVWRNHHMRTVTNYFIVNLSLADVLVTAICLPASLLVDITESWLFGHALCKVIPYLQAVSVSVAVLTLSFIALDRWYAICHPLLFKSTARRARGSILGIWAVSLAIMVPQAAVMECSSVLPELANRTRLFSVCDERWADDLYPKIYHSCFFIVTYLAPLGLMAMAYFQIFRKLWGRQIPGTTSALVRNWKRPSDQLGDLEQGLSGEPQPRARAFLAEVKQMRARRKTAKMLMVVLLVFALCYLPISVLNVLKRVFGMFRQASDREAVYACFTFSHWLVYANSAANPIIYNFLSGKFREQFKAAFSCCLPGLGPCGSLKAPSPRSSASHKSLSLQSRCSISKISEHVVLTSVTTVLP
The test can be described thus: FRET or BRET; BRET in living HEK293 cells; donor (Rluc fusion) and acceptor (EYFP fusion) plasmids 1:3; coelenterazine h 5 μM; also after ghrelin (100 nM) and/or orexin-A (100 nM) or vehicle for 10 min. The following applies: partners not purified. (In general: BRET reads energy transfer from a luciferase to a nearby fluorophore.)

B1: GHSR1a-EYFP (receptor, UniProt Q92847 1-366, looked up)
chain: MWNATPSEEPGFNLTLADLDWDASPGNDSLGDELLQLFPAPLLAGVTATCVALFVVGIAGNLLTMLVVSRFRELRTTTNLYLSSMAFSDLLIFLCMPLDLVRLWQYRPWNFGDLLCKLFQFVSESCTYATVLTITALSVERYFAICFPLRAKVVVTKGRVKLVIFVIWAVAFCSAGPIFVLVGVEHENGTDPWDTNECRPTEFAVRSGLLTVMVWVSSIFFFLPVFCLTVLYSLIGRKLWRRRRGDAVVGASLRDQNHKQTVKMLAVVVFAFILCWLPFHVGRYLFSKSFEPGSLEIAQISQYCNLVSFVLFYLSAAINPILYNIMSKKYRVAVFRLLGFEPFSQRKLSTLKDESSRAWTESSINT
notes: Growth hormone secretagogue receptor 1α (GHSR1a); ORF inserted into the EYFP-N1 vector; cDNA from pcDNA3.1-GHSR1a (cDNA Resource Centre); BRET and FRET acceptor; The FRET methods call it EYFP-GHSR1a, but the construction paragraph puts EYFP on the C-terminus; also called growth hormone secretagogue receptor 1α; EYFP-GHSR1a; source: HEK293, transiently transfected, in living cells; not shown: …
In the case of B1, the mBRET ratio worked out at 190.

These data come from publication PMC6056640, “Ghrelin Through GHSR1a and OX1R Heterodimers Reveals a Gαs–cAMP-cAMP Response Element Binding Protein Signaling Pathway in Vitro” (Frontiers in Molecular Neuroscience, 2018).
